Experiments:
Experiment in all cases: cleavage_in_vitro
[1] = system: T1, OMNI-98 (metagenomic, unknown); conditions: TXTL; PAM NNAAATNN
T1 sequence: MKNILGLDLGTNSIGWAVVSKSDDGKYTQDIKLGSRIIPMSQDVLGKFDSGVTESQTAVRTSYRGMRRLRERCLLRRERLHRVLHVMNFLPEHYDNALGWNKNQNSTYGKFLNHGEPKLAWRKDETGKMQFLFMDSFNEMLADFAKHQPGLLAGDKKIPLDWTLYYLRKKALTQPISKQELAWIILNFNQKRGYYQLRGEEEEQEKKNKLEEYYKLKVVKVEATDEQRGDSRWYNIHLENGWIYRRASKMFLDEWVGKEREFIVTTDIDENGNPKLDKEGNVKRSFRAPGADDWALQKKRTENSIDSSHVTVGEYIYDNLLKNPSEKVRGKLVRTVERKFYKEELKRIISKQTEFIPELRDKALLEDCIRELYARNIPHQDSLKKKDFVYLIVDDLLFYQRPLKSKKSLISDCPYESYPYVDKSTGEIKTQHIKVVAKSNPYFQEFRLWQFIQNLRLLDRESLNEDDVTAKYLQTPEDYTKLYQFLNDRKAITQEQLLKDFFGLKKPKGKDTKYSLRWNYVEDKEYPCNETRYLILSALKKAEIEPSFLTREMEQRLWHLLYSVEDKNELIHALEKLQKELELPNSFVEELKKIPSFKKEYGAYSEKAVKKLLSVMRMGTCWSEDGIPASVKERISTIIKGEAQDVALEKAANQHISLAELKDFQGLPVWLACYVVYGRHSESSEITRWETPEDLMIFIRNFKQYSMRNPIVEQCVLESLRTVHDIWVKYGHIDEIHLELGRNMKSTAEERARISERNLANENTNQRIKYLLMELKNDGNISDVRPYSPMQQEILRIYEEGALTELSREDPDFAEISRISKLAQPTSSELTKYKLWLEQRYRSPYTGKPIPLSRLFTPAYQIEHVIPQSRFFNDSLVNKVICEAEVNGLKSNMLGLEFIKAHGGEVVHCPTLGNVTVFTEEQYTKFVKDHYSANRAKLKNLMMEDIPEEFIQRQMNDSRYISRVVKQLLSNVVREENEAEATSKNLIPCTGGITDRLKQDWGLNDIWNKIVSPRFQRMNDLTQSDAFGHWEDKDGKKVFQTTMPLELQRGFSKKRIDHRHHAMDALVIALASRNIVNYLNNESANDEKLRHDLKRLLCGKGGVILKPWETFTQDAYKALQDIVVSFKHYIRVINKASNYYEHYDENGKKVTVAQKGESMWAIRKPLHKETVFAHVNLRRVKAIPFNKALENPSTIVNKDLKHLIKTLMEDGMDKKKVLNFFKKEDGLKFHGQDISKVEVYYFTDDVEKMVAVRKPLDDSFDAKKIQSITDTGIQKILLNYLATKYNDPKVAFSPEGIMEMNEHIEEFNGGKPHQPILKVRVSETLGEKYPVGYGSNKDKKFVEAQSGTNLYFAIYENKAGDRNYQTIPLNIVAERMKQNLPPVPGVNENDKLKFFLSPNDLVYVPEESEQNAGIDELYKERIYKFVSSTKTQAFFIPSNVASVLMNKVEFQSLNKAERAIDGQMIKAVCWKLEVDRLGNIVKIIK

[2] = system: T2, OMNI-99 (metagenomic, unknown); conditions: TXTL; PAM NAGACNNN
T2 sequence: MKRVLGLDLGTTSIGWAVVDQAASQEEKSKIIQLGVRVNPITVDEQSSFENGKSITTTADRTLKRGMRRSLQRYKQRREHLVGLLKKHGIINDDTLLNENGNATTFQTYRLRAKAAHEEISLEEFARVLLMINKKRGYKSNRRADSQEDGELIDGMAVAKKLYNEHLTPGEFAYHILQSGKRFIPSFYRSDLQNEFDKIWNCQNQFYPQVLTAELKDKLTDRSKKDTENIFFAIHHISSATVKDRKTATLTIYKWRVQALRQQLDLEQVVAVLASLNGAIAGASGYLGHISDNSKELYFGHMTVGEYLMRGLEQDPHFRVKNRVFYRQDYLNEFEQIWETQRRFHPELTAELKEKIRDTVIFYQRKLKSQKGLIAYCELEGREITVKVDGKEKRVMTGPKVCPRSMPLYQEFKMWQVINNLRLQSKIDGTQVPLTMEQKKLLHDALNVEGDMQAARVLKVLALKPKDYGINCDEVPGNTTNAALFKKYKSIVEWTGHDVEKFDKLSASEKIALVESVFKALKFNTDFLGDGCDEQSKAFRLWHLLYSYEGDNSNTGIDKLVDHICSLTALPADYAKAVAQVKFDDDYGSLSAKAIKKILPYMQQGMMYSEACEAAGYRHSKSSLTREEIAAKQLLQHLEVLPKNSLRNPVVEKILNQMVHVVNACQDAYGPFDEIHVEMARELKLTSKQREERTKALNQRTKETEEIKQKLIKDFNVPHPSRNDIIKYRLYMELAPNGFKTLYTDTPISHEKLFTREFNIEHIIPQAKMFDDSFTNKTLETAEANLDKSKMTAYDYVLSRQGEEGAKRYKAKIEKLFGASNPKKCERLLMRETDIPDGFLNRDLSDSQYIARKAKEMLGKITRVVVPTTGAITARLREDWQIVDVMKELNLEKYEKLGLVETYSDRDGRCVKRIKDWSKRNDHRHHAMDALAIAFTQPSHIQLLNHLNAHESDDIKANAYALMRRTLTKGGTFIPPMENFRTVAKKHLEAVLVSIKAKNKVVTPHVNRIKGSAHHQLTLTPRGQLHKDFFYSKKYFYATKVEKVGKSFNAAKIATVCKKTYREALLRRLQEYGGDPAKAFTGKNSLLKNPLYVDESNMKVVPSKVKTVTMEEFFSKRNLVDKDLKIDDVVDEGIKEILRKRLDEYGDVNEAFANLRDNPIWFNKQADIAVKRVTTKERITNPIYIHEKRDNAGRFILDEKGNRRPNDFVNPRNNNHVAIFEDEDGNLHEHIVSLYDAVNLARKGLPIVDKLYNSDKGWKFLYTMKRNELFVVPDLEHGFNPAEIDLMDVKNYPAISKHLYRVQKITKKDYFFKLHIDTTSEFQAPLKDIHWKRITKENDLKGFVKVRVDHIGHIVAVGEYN

[3] = system: T3, OMNI-106 (metagenomic, unknown); conditions: TXTL; PAM NRKAACNN
T3 sequence: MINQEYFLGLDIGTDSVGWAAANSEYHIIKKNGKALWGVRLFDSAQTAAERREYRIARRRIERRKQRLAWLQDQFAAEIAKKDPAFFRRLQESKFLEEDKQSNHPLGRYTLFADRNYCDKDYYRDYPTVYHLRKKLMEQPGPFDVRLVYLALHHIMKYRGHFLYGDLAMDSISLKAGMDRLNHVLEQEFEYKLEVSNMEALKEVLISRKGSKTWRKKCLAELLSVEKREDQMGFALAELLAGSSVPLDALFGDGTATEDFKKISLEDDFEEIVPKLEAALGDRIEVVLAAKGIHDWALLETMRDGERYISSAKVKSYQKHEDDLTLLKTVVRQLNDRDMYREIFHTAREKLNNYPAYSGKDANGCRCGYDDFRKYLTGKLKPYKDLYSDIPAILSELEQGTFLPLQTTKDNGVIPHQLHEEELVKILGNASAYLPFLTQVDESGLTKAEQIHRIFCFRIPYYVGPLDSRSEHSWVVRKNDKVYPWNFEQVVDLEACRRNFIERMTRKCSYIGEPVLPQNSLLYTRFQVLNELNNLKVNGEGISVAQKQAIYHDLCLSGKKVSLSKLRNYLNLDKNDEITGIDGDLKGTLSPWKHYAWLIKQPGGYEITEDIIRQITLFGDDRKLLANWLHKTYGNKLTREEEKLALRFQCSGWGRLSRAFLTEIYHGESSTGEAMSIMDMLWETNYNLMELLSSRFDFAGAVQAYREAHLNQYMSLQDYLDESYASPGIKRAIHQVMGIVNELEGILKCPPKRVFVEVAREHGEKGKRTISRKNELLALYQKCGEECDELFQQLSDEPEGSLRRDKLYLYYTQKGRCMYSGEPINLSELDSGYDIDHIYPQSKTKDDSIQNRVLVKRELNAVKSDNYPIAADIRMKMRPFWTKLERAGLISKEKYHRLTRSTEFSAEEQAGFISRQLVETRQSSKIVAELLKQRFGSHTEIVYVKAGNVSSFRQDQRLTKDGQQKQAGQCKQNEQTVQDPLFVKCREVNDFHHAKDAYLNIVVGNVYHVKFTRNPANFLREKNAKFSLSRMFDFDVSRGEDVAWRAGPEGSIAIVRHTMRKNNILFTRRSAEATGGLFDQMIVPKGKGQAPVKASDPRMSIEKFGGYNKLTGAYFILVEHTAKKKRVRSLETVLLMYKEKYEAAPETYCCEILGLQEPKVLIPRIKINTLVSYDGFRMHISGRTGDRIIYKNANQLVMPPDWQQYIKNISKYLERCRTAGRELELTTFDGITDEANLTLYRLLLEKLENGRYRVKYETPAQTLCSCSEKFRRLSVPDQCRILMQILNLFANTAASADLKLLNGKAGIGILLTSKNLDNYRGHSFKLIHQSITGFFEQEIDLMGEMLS

[4] = system: T4, OMNI-96 (metagenomic, unknown); conditions: TXTL; PAM NYAAGNNN
T4 sequence: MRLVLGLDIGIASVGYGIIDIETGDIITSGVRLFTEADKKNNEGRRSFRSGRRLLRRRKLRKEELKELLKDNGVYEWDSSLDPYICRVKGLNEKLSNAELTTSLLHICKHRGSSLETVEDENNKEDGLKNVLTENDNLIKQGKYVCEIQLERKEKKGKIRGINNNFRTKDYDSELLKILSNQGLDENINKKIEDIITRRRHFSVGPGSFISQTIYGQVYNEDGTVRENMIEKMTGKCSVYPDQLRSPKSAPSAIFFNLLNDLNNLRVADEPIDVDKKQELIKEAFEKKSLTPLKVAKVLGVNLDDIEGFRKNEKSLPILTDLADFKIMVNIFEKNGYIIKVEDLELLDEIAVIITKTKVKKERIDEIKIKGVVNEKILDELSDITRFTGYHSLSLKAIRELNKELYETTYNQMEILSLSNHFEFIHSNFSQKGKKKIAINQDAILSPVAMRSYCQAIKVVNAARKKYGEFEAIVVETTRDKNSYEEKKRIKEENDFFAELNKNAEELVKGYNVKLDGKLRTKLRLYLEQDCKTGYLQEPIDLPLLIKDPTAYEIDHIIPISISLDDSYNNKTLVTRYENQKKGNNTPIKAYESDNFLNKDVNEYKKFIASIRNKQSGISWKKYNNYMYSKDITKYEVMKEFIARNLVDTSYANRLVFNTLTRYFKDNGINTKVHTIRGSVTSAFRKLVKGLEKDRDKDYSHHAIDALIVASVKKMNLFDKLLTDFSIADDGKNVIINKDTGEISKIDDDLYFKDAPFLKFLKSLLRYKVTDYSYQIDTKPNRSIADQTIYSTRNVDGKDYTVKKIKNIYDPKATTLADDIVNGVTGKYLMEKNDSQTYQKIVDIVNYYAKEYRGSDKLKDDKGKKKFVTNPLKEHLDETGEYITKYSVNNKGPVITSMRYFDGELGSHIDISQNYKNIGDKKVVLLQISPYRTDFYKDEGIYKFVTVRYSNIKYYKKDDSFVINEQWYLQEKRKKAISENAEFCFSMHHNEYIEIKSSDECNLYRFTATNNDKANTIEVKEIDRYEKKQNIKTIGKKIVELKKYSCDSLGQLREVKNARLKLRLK

Sequence “GGAAGAGCAGAGCCUUGGUCUCGUUGUGAAUUGCUUUCGAAAGAAAGCAAUUCACAAUAAGGAUUAUUCCGUUGUGAAAACAUUUAGGACGGGGCAACUCGUCCUUUGUUUUUUU / GGAAGAGCAGAGCCTTGGTCTCNNNNNNNN / NNNNNNNNGAGACCAAGGCTCTGCTCTTCC [T2 sgRNA 9 V1 ; T2 protospacer + 8N PAM library (pbPOS T2)]” has an activity (1-depletion score) [1] of 0.93.

Sequence “GGAAGAGCAGAGCCUUGGUCUCGUUGUGAAUUGCUUUCGAAAGAAGCAAUUCACAAUAAGGAUUAUUCCGUUGUGAAAACAUCAGGAGCGGGUUCUACUCGCUCUUUUUU / GGAAGAGCAGAGCCTTGGTCTCNNNNNNNN / NNNNNNNNGAGACCAAGGCTCTGCTCTTCC [T2 sgRNA 10 V1 ; T2 protospacer + 8N PAM library (pbPOS T2)]” has an activity (1-depletion score) [2] of 0.93.

With “GGAAGAGCAGAGCCUUGGUCUCGUUUGAGAGUCGUGCUGGAAACAACACGACGGGUUCAAAUACGGCUUUGCCAAAACCGCUGGUUUGAUCCAGCUUCACAGUGUGUGAGGGUAAAAAGUCCGCUAUGCGGACUUUUUUU / GGAAGAGCAGAGCCTTGGTCTCNNNNNNNN / NNNNNNNNGAGACCAAGGCTCTGCTCTTCC [T2 sgRNA 15 V1 ; T2 protospacer + 8N PAM library (pbPOS T2)]” the activity (1-depletion score) [3] was 0.95.

“GGAAGAGCAGAGCCUUGGUCUCGUUUUGCUACCCUAAAUUAGAAAAAUAUUAGGACCUAGCAAAACAAGGCUUUAUGCCGAAAUCGGAGUCGACGGGCUCCUUUUUU / GGAAGAGCAGAGCCTTGGTCTCNNNNNNNN / NNNNNNNNGAGACCAAGGCTCTGCTCTTCC [T2 sgRNA 7 V1 ; T2 protospacer + 8N PAM library (pbPOS T2)]” was tested, and the activity (1-depletion score) [4] was 0.57.
